# PMC12439599 (RNA (New York, N.Y.), 2025)
# T1: S. cerevisiae eIF5-CTD, eIF5 residues 201–405 (S. cerevisiae, UniProt P38431 201-405)
# T1 sequence: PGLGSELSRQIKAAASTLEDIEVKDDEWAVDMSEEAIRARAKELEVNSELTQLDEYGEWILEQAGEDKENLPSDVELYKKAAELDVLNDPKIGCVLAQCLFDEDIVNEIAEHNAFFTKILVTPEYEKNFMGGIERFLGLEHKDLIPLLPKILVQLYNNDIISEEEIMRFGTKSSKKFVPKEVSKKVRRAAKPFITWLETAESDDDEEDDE
# B1: human eIF2β-NTT (residues 1–191), His6-tagged (domain or fragment)
# chain: MSGDEMIFDPTMSKKKKKKKKPFMLDEEGDTQTEETQPSETKEVEPEPTEDKDLEADEEDTRKKDASDDLDDLNFFNQKKKKKKTKKIFDIDEAEEGVKDLKIESDVQEPTEPEDDLDIMLGNKKKKKKNVKFPDEDEILEKDEALEDEDNKKDDGISFSNQTGPAWAGSERDYTYEELLNRVFNIMREKN
# B2: human eIF5-CTD (residues 232–431) (domain or fragment, UniProt P55010 232-431, looked up)
# chain: LERTIEERVNILFDFVKKKKEEGVIDSSDKEIVAEAERLDVKAMGPLVLTEVLFNEKIREQIKKYRRHFLRFCHNNKKAQRYLLHGLECVVAMHQAQLISKIPHILKEMYDADLLEEEVIISWSEKASKKYVSKELAKEIRVKAEPFIKWLKEAEEESSGGEEEDEDENIEVVYSKAASVPKVETVKSDNKDDDIDIDAI
# B3: human eIF2Bε-CTD phosphomimetic mutant (eIF2Bε-CTD-EE) (domain or fragment)
# chain: GSPQMDDIKVFQNEVLGTLQRGKEENISCDNLVLEINSLKYAYNISLKEVMQVLSHVVLEFPLQQMDSPLDSSRYCALLLPLLKAWSPVFRNYIKRAADHLEALAAIEDFFLEHEALGISMAKVLMAFYQLEILAEETILSWFSQRDTTDKGQQLRKNQQLQRFIQWLKEAEEEEEEDD
# B4: human eIF2Bε-CTD (domain or fragment, UniProt Q13144 543-721, looked up)
# chain: GSPQMDDIKVFQNEVLGTLQRGKEENISCDNLVLEINSLKYAYNISLKEVMQVLSHVVLEFPLQQMDSPLDSSRYCALLLPLLKAWSPVFRNYIKRAADHLEALAAIEDFFLEHEALGISMAKVLMAFYQLEILAEETILSWFSQRDTTDKGQQLRKNQQLQRFIQWLKEAEEESSEDD
# B5: human eIF2β-K3 (K-box 3 with surrounding segments) (domain or fragment, UniProt P20042 106-173, looked up)
# chain: DVQEPTEPEDDLDIMLGNKKKKKKNVKFPDEDEILEKDEALEDEDNKKDDGISFSNQTGPAWAGSERD
# B6: human 5MP1-CTD (domain or fragment, UniProt Q9Y6E2 248-419, looked up)
# chain: VQQSLGTRKELQKELQERLSQECPIKEVVLYVKEEMKRNDLPETAVIGLLWTCIMNAVEWNKKEELVAEQALKHLKQYAPLLAVFSSQGQSELILLQKVQEYCYDNIHFMKAFQKIVVLFYKADVLSEEAILKWYKEAHVAKGKSVFLDQMKKFVEWLQNAEEESESEGEEN
# B7: human 5MP1-CTD phosphomimetic mutant (5MP1-CTD-EE) (domain or fragment)
# chain: VQQSLGTRKELQKELQERLSQECPIKEVVLYVKEEMKRNDLPETAVIGLLWTCIMNAVEWNKKEELVAEQALKHLKQYAPLLAVFSSQGQSELILLQKVQEYCYDNIHFMKAFQKIVVLFYKADVLSEEAILKWYKEAHVAKGKSVFLDQMKKFVEWLQNAEEEEEEEGEEN
# What was measured:
# [1] = target: human eIF5-CTD phosphomimetic mutant (eIF5-CTD-EE) (human) (UniProt P55010); assay: NMR titration
# [2] = target: B2; assay: NMR titration
# [3] = target: B2; assay: ITC
# human eIF2Bε-CTD = target: B4; assay: NMR titration
# [4] = target: B7; assay: NMR titration
# human 5MP1-CTD = target: B6; assay: NMR titration
# [5] = target: B3; assay: NMR titration
# [6] = target: B2; assay: NMR titration; remark: listed apart in the source
# [7] = target: B5; assay: ITC
# [8] = target: B1; assay: ITC
# [9] = target: B5; assay: NMR titration
# [10] = target: B1; assay: NMR titration
# [11] = target: T1, S. cerevisiae eIF5-CTD, eIF5 residues …; assay: crystal structure
molecule,measurement,setting,value
"human eIF2β-NTT (residues 1–191), His6-tagged (from UniProt P20042 1-191) (domain or fragment)",Kd,[1],2.3 µM
human eIF2β-K1 (K-box 1 with surrounding segments) (from UniProt P20042 1-45) (domain or fragment),Kd,[1],0.2 µM
human eIF2β-K3 (K-box 3 with surrounding segments) (from UniProt P20042 106-173) (domain or fragment),Kd,[1],0.3 µM
B1,Kd,[2],37 ± 6 µM
same,Kd,[3],33 µM
"DTRKKDASDDLDDLNFFNQKKKKKKTKKIFDIDEAEEGVKDLKIES (domain or fragment, UniProt P20042 60-105, looked up) [human eIF2β-K2 (K-box 2 with surrounding segments)]",Kd,human eIF2Bε-CTD,9 ± 3 µM
same,Kd,[4],5.6 ± 0.9 µM
same,Kd,human 5MP1-CTD,18 ± 3 µM
same,Kd,[5],2.3 ± 0.5 µM
same,Kd,[6],6 ± 1 µM
B2,stoichiometry N,[7],1
same,stoichiometry N,[8],3.46
"MSGDEMIFDPTMSKKKKKKKKPFMLDEEGDTQTEETQPSETKEVE (domain or fragment, UniProt P20042 1-45, looked up) [human eIF2β-K1 (K-box 1 with surrounding segments)]",Kd,human eIF2Bε-CTD,8 ± 1 µM
same,Kd,[4],11 ± 3 µM
same,Kd,human 5MP1-CTD,20 ± 7 µM
same,Kd,[5],4 ± 1 µM
same,Kd,[6],3 ± 1 µM
B3,Kd,[9],14 ± 1 µM
same,Kd,[10],14 ± 4 µM
B4,Kd,[10],44 ± 3 µM
B5,Kd,human eIF2Bε-CTD,24 ± 3 µM
same,Kd,human 5MP1-CTD,37 ± 5 µM
same,Kd,[6],4 ± 1 µM
same,Kd,[3],4.7 µM
B6,Kd,[10],63 ± 5 µM
B7,Kd,[9],23 ± 3 µM
same,Kd,[10],45 ± 6 µM
"S. cerevisiae eIF2β residues 39–106 (K-boxes 2 and 3 with flanking regions) (domain or fragment, UniProt P09064 39-106, looked up) GSGDDLFAGLKKKKKKSKSVSADAEAEKEPTDDIAEALGELSLKKKKKKTKDSSVDAFEKELAKAGLD",binding result,[11],binds
